In paper PMC5385344, “Large Diversity of Functional Nanobodies from a Camelid Immune Library Revealed by an Alternative Analysis of Next-Generation Sequencing Data” (Frontiers in Immunology, 2017):

Assays:
[1] = molecular target: T1, Recombinant extracellular domain of human RON (rhRON) (human, UniProt Q04912); assay: ELISA; ligand competition: rhRON (1 µg/ml) immobilised directly; dilution series of purified nanobodies starting at 1 µM added together with 2 nM biotinylated MSP; MSP detected by extravidin peroxidase; conditions: both partners purified
T1 construct: recepteur d'origine nantais (RON) receptor tyrosine kinase, human, recombinant extracellular domain; also called recepteur d'origine nantais; source: bought: R&D Systems

[2] = molecular target: T1, Recombinant extracellular domain of …; assay: SPR; ProteOn; rhRON immobilised on GLC chip; 1/10 diluted crude periplasmic extracts injected 2 min at 45 µl/min; Langmuir model, off-rate only; conditions: one partner purified
[3] = molecular target: T2, RON endogenously expressed on T-47D human breast cancer cells (Homo sapiens (T-47D cell line), UniProt Q04912); assay: flow cytometry on cells; dilution series of purified nanobodies starting at 500 nM on T-47D cells endogenously expressing RON; anti-FLAG then anti-mouse APC; conditions: one partner purified
T2 construct: recepteur d'origine nantais (RON), endogenous on the human breast cancer cell line T-47D; also called hRON; source: endogenous, on T-47D cells

[4] = molecular target: T2, RON endogenously expressed on T-47D …; assay: cell-based or functional assay
[5] = molecular target: T1, Recombinant extracellular domain of …; assay: ELISA; rhRON (1 µg/ml) immobilised directly on 384-well plates; crude periplasmic extracts of nanobodies; detection by anti-FLAG HRP; positive if OD450 ratio to a negative control nanobody ≥2; conditions: one partner purified
[6] = molecular target: T3, full-length human RON expressed on HEK293T cells (HEK293T-hRON) (Homo sapiens, UniProt Q04912); assay: flow cytometry on cells; 1/10 diluted crude periplasmic extracts on HEK293T-hRON and HEK293T cells; anti-FLAG then anti-mouse APC; positive if normalised ratio ≥2; conditions: partners not purified
T3 construct: also called cell-expressed RON; source: HEK293T, transiently transfected (pcDNA3.1), on cells
T3 sequence (Q04912 25-1400): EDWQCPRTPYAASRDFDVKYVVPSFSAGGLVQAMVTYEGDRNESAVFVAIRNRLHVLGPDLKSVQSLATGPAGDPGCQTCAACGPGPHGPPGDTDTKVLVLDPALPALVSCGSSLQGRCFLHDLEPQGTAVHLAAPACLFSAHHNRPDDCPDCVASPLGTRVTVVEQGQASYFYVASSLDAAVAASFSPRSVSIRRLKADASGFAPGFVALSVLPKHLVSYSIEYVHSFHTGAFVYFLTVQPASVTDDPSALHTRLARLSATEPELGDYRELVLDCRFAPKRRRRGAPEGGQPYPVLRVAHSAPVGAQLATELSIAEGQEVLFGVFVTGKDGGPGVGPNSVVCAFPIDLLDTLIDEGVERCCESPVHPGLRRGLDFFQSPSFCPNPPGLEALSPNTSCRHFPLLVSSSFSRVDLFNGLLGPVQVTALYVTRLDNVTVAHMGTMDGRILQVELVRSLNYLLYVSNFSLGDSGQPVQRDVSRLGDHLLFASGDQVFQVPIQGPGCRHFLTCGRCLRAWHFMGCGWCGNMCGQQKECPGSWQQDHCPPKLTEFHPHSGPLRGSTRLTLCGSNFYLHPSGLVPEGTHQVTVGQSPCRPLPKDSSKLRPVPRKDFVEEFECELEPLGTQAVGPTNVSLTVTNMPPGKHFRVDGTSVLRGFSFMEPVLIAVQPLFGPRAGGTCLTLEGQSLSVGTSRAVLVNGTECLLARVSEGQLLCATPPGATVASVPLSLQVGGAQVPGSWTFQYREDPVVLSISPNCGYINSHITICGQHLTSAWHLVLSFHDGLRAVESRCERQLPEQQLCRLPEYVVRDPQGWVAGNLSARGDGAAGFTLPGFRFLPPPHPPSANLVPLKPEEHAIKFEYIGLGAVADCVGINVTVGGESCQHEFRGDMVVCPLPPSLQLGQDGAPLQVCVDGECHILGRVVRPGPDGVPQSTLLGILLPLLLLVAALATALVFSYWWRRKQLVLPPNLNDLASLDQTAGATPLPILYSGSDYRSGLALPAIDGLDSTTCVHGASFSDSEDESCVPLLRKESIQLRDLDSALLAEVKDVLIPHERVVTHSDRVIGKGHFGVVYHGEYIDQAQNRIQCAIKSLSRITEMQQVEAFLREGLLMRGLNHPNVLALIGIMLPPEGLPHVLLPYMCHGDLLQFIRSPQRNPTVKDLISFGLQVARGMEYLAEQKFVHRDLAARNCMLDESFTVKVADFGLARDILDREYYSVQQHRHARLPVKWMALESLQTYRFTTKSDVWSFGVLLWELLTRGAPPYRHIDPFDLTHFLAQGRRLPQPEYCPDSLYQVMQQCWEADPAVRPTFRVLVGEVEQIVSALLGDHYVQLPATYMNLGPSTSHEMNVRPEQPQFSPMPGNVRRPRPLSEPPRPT

T2 sequence (Q04912 25-1400): as above
T1 sequence (Q04912 25-957): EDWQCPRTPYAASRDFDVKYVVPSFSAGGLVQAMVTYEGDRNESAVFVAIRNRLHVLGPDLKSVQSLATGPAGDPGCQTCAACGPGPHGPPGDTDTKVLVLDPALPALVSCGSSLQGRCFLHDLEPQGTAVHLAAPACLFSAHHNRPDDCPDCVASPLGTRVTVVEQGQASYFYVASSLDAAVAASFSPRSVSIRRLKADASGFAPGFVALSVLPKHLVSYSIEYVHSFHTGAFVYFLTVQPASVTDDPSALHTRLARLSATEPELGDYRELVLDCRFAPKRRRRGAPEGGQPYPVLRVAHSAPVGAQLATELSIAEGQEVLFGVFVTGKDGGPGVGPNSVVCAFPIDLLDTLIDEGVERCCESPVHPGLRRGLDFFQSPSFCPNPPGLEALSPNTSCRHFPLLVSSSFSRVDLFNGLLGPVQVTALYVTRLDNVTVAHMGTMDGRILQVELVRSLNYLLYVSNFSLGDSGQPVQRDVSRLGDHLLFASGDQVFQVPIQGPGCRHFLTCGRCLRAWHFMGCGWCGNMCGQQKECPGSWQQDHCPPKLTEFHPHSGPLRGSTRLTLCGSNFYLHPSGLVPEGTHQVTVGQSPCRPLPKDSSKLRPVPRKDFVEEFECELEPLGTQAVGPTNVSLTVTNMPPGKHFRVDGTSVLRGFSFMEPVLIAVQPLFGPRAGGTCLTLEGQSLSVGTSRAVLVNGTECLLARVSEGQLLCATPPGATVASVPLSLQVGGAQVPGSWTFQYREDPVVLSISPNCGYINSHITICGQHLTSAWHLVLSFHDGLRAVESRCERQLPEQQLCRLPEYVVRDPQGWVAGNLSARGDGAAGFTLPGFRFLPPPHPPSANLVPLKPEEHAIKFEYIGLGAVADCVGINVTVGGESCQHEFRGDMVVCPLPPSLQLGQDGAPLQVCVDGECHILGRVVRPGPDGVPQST

Row | IC50 [1] [nM] | maximum inhibition of MSP binding [1] [%] | koff [2] [s⁻¹] | EC50 [3] [nM] | IC50 (M) inhibition of ERK phosphorylation induced by 1 nM MSP through RON on T-47D cells; purified nanobody, HTRF phospho-ERK [4] [M] | maximum inhibition (efficacy) of MSP-induced ERK phosphorylation in T-47D cells [4] [%] | binding result [5] | binding result [6] | Binder
1 | 9.7 | 98 | 0.00046 | 0.053 | 6e-09 | 100 | – | – | nanobody 11F05 (VHH, From a llama immunised with rhRON; found by conventional screening and by NGS; source: E. coli, crude periplasmic extract; E. coli, purified; not shown: FLAG3, C-terminal, kept) VHH: EVQLVESGGGSVQAGGSLRLSCAASGRYRMGWFRQAPGKEREFVAVISASGGSTYYADSVKGRFTIARDNAKTMVYLQMNSLKPEDTAVYYCAAKVNYYGDYDLAQNYDYWGQGTQVTVSS
2 | 250 | 90 | 0.0069 | > 1000 | 3e-07 | 92 | – | – | nanobody 2C06 (VHH, From a llama immunised with rhRON; found by conventional screening and by NGS; source: E. coli, crude periplasmic extract; E. coli, purified; not shown: FLAG3, C-terminal, kept) VHH: EVQLVESGGGLVQTGGSLRLSCARSGPTFSDYAMAWFRQARGKEREFVASITWIGGSTYYADSVKGRFTISRDSAKDTMYLQMNTLKPEDTADYYCAIARLGTYYGSYIRAYFNRGRYEYWGQGTQVTVSS
3 | 22 | 98 | 0.0037 | 200 | 1.2e-07 | 98 | – | – | nanobody 5C06 (VHH, From a llama immunised with rhRON; found by conventional screening and by NGS; source: E. coli, crude periplasmic extract; E. coli, purified; not shown: FLAG3, C-terminal, kept) VHH: EVQLVESGGGLVQPGGSLRLSCAASGFTLDYYAIGWFRQAPGKEREGVSCISSSDGSTYYADSVKGRFTISRDNAKNTVYLQMNSLKPEDTAVYYCATDLKRRCRDYARPQRGNDYWGQGTQVTVSS
4 | 12 | 98 | 0.00064 | 0.2 | 5.2e-09 | 99 | – | – | nanobody 8F09 (VHH, From a llama immunised with rhRON; found by conventional screening and by NGS; source: E. coli, crude periplasmic extract; E. coli, purified; not shown: FLAG3, C-terminal, kept) VHH: EVQLVESGGGLVQAGGSLRLSCEASGRYVMGWFRQAPGKEREFVAVISRSGGSTNYADSVKGRFSVSRDSAKNTVYLQMNDLKPEDTAVYYCAASNRYGTNVLVTTALYDYWGQGTQVTVSS
5 | 11 | 98 | 0.00051 | 0.061 | 1.5e-08 | 100 | – | – | nanobody 8D12 (VHH, From a llama immunised with rhRON; found by conventional screening and by NGS; source: E. coli, crude periplasmic extract; E. coli, purified; not shown: FLAG3, C-terminal, kept) VHH: EVQLVESGGGLVQAGGSLRLSCAASGRYAMGWFRQAPGKEREFVGVISKSGGSTYIADSVKGRFTISRHNAKSTAYLQMNNLRPEDTAVYYCAANGFLGTSGRRVDQYDYWGQGTQVTVSS
6 | 16 | 98 | 0.00062 | 0.093 | 4.9e-09 | 100 | – | – | nanobody 8A09 (VHH, From a llama immunised with rhRON; found by conventional screening and by NGS; source: E. coli, crude periplasmic extract; E. coli, purified; not shown: FLAG3, C-terminal, kept) VHH: EVQLVKSGGGLVQAGGSLRLSCAASGRVAMGWFRQPPGKEREFVAAISASGATKYYADSVKGRFTIFRDNANTTVYLQMNSLKPEDTAVYYCAARLRWDSDYTSGGRYDYWGQGTQVTVSS
7 | 240 | 92 | 0.00097 | 34 | 8.2e-08 | 98 | – | – | nanobody 8G11 (VHH, From a llama immunised with rhRON; found by conventional screening and by NGS; source: E. coli, crude periplasmic extract; E. coli, purified; not shown: FLAG3, C-terminal, kept) VHH: EVQLVESGGGLVQAGGSLRLSCAASGGIFDNYAMGWIRQAPGKEREFVAGIRWSESSTYYAASVKGRFTISRDNAKNTVYLQMNSLKPEDTAVYSCAAWFWISSTWSYFSENEPNYRGPGTLVTVSS
8 | – | – | – | – | – | – | no binding | no binding | nanobody NGS00003 (VHH, majority-rule consensus of an NGS cluster; One of the 28 randomly selected NGS clusters; source: E. coli, crude periplasmic extract (synthetic DNA); not shown: FLAG3, C-terminal, kept) VHH: EVQLVESGGGLVQPGGSLRLSCAASGFAFSRYWMYWVRQAPGKGLEWVSAISSSGSSTDYVDSVKGRFTVSRDNAKNTLYLQMNGLKSEDTAIYYCAKDTRQFIRSNYDNGGQGTLVTVSS
9 | 7 | 96 | 0.0028 | 0.12 | 1.3e-08 | 100 | – | – | nanobody 8A12 (VHH, From a llama immunised with rhRON; found by conventional screening and by NGS; source: E. coli, crude periplasmic extract; E. coli, purified; not shown: FLAG3, C-terminal, kept) VHH: EVQLVESGGGLVQAGGSLRVSCAASGLTFSRYNMGWFRQAPGKERDFVAAISSSDGSILYENSVKGRFTISRDNAENTVYLQMNSLEPEDTGVYYCAGSIVMSTLARKYDYWGQGTLVTVSS
10 | 47 | 90 | 0.0023 | 170 | 3.3e-08 | 100 | – | – | nanobody 8C09 (VHH, From a llama immunised with rhRON; found by conventional screening and by NGS; source: E. coli, crude periplasmic extract; E. coli, purified; not shown: FLAG3, C-terminal, kept) VHH: EVQLVESGGGLVQAGGSLRLACAASGRISSTYRMGWFRQAPGKEREFVAASRWSGGGVLYTDSVKGRFTISTDNGKNMVYLQMNSLRPEDTAVYYCAGRNYGTTEYGYWGQGTQVTVSS
11 | – | – | – | – | – | – | no binding | no binding | nanobody NGS00020 (VHH, majority-rule consensus of an NGS cluster; One of the 28 randomly selected NGS clusters; source: E. coli, crude periplasmic extract (synthetic DNA); not shown: FLAG3, C-terminal, kept) VHH: EVQLVESGGALVQAGDSLRVSCVASGRTFSRYAMGWFRQAPGKQREFVAAISWDGDSTSYANSLKGRFTISRDNAKNTGYLYMNSLIPEDTAVYYCAADRGRTTAWTYWGEGTLVTVSS
12 | – | – | – | – | – | – | binds | – | nanobody NGS00009 (VHH, majority-rule consensus of an NGS cluster; One of the 28 randomly selected NGS clusters; source: E. coli, crude periplasmic extract (synthetic DNA); not shown: FLAG3, C-terminal, kept) VHH: EVQLVESGGGLVQAGDSLRLSCAASGRTFSTYALGWFRQAPGKEREFVAVISGRGGTTYYAGSVKGRLTISRDNAKNTVYLQMNSLKPEDTAVYYCAAGSDFGAVVDNRPDYWGQGTLVTVSS
13 | – | – | – | – | – | – | no binding | no binding | nanobody NGS00027 (VHH, majority-rule consensus of an NGS cluster; One of the 28 randomly selected NGS clusters; source: E. coli, crude periplasmic extract (synthetic DNA); not shown: FLAG3, C-terminal, kept) VHH: EVQLVESGGGLVQVGASLRLSCRASGGTFDDYAMGWFRQRPGEEREFVAVISWNGAMTYYLNHIKGRFTISRDNAKNTAYLQMNNLEPGDTAVYYCAAERTLGWGVNPEAYASWGQGTLVTVSS
